Assay results as given in patent publication US20250154242A1 (ADAFRE BIOSCIENCES, published 2025).

Biological target: TNFR
Experiment: cell-based or functional assay

B1: cynomolgus TNFα (ligand)
chain: VRSSSRTPSDKPVAHVVANPQAEGQLQWLNRRANALVANGVELTDNQLVVPSEGLYLIYSQVLFKGQGCPSNHVLLTHTISRIAVSYQTKVNLLSAIKSPCQRETPEGAEAKPWYEPIYLGGVFQLEKGDRLSAEINLPDYLDFAESGQVYFGIIAL
modifications: biotinylated in the binding ELISA (sites not given)
With B1 the “EC50, stimulation of HEK-Blue TNFα cells (SEAP reporter)” value was 3.1 pM.
